# Assay: soluble on expression in E. coli; label from the status in PepcDB or PDB records
row,Sequence,soluble on expression in E. coli
1,IQLQQATQLHFSELGKLLDDLRVEKHINEVRLKLTPSFAFKWLVPKLESFQLENPEIQVQIFAEGALVNSDLKDYDVAIDYGLHPYRDHDAELILDEKLLPVMSPKYLEDHRWLKTPFGDQTSSMSANQWQAATLLHDAMPWEKATRDYEWLYWASAMGFDFKTDVGHFFNRTDMAMSAAEAGVGIAMARMALIEDELTTKRLVSPFAPIPANAGYYLIMNTRSQSTERFREWLLKQIESRR,not soluble
2,MGDEDDDESCAVELRITEANLTGHEEKVSVENFELLKVLGTGAYGKVFLVRKAGGHDAGKLYAMKVLRKAALVQRAKTQEHTRTERSVLELVRQAPFLVTLHYAFQTDAKLHLILDYVSGGEMFTHLYQRQYFKEAEVRVYGGEIVLALEHLHKLGIIYRDLKLENVLLDSEGHIVLTDFGLSKEFLTEEKERTFSFCGTIEYMAPEIIRSKTGHGKAVDWWSLGILLFELLTGASPFTLEGERNTQAEVSRRILKCSPPFPPRIGPVAQDLLQRLLCKDPKKRLGAGPQGAQEVRNHPFFQGLDWVALAARKIPAPFRPQIRSELDVGNFAEEFTRLEPVYSPPGSPPPGDPRIFQGYSFVAPSILFDHNNAVMTDGLEAPGAGDRPGRAAVARSAMMQYELDLREPALGQGSFSVCRRCRQRQSGQEFAVKILSRRLEANTQREVAALRLCQSHPNVVNLHEVHHDQPHTYLVLELLRGGELLEHIRKKRHFSESEASQILRSLVSAVSFMHEEAGVVHRDLKPENILYADDTPGAPVKIIDFGFARLRPQSPGVPMQTPCFTLQYAAPELLAQQGYDESCDLWSLGVILYMMLSGQVPFQGASGQGGQSQAAEIMCKIREGRFSLDGEAWQGVSEEAKELVRGLLTVDPAKRLKLEGLRGSSWLQDGSARSSPPLRTPDVLESSGPAVRSGLNATFMAFNRGKREGFFLKSVENAPLAKRRKQKLRSATASRRGSPAPANPGRAPVAAKGAPRRANGPLPPS,soluble
3,MTTSIQRRISIVIPCLNDAVLLEQCLSSIVAQTLQPEEVIVVDNGSTDNSVEVANRMGARVVHEPLQGITWASAAGYNSARGDLIVRFDADCVIPPDHLSQVNAIWNRTEETPGRTIVALTGTGSFDIPGRMGEWLALCYLGAYRWSTKQALGHYPIFGSNSVISRQWWEDVKDQITLSETFVHEDMYFSFFVRPHETVWFEKNLKLIMHPRALMGVRQSFIRLVRGFYTIKIAWKREPVHQRLESRRDWTLEHHHHHH,not soluble
4,GTPEQLQAWRWEREIDERNRPLSDEELDAMFPEGYKVLPPPAGYVPI,soluble
5,MSGKLYICPTPIGNLEDITYRTLRTLKEVDLIAAEDTRHSIKLLNHFEISKPLTSYHEHNKDSKGDYLINKLIDGENIALISDAGMPGISDPGEEIIKQAIQNNIEIEVLPGA,not soluble
6,MGSDKIHHHHHHMSSSDNILERLLFTIHKRLVSIPIAPNLRKNVAPIVNDWPSRPEKNTRPSTTVHLPAVDYLEQALKIGETSGDREICPMIRLLAPELSWNFDYAPHPAFPYLDEKVAFTQFVGPNDLWVSSHLAIGLTLIAPETHYPAHCHPATEIYLPLAGTGSWSMGNYYYFPRKPGELIFHPSGITHATQAQEEPMLALYIWHGDICSPSEWLPDECE,not soluble
7,MGSDKIHHHHHHMTINDLQAFVMVYDLRHISNAAVELHLSQSELSKRMRALENELNIKLLDTHNKRRLQITPAGETFYHHAHKMITDYETMMHDLAPNRPTTFAKLIIGAIPISGQYNIAKKIATFDTQHPDTEIKIIEDEGDQIVKRLLSGELQAAIIRDTQTTQLQPTEFQKQPLLADELKIILPRDHPLATQPVIRIQDLARQKIATLPPGSGVYEPINALFAQQGMTPQFFFESTHIETLLGILNQNNVTFLFKQSVLPFMTEHVVMRSLAIPFISQLNFVYPQRTGNQLLTDLIDYLTVTAQENQQV,not soluble
8,MQKLKQQVFDANMDLPRYGLVTFTWGNVSAIDRERGLVVIKPSGVAYETMKVDDMVVVDMDGKVVEGRYRPSSDTATHLALYQRYPSLGGVVHTHSTHATAWAQAGMAIPALGTTHADYFFGDIPCTRALSEEEVQGEYELNTGKVIIETLGEVEPLHTPGIVVYQHGPFAWGKDAHDAVHNAVVMEEVARMAWIARGINPALNPIDDYLMNKHFMRKHGPNAYYGQK,not soluble
9,MSLDDERTQVLLKRDSEVFLHQAMSTPCLDTLDAAEGIYIQDATGKKYMDFHGNNVHQLGYGHPHVIKRVQEQIAKLPFSPRRFTNETAIECAEKLTQICGGELNRVLFAPGGTSAVGMALKLARHITGNYKVVSLWDSFHGASLDAISVGGEACFRQGMGPLMAGVERIPPAVSYRGAFPVADGSDVHYADYLEYVIEKEGGVGAFIAEAVRNTDVQVPSKAYWKRIREICDKHNVMLIIDDIPNGMGRSGEWFTYQAYDIEPDMLCIGKGLGGGLVPIAAMVTKDKYNTAEQISMGHYTHEKSPIGCAAALATMEAIEQDGLLDKVKADSQFMREKLLEMKAKYPVIGDVRGIGMLWGIELVTDHESKARAYDEAEAVLYQCLNNGVSFKVSQGNVIQLSPPLIITREQLTEALAIFEEAIAKVCKEGHHHHHH,not soluble
10,MKYKDLRDFIAMLEQQGKLKRVAHPVSPHLEMTEIADRVLRAEGPALLFENPVKPDGTRYDYPVLANLFGTPERVAMGMGADSVSKLREIGQTLAYLKEPEPPKGIKDAFSKLPLLKDIWSMAPNVVKNAPCQEIVWEGEDVDLYQLPIQHCWPEDVAPLVTWGLTVTRGPHKKRQNLGIYRQQLIGKNKLVMRWLSHRGGALDYQEFRKLNPDTPYPVAVVLGCDPSTILGAVTPVPDTLSEYQFAGLLRGSRTELVKCIGSDLQVPARAEIVLEGVIHPNETALEGPYGDHTGYYNEQGHFPVFTVERITMRENPIYHSTYTGKPPDEPAVLGVALNEVFVPLLQKQFSEITDFYLPPEGCSYRMAVVSMKKQYAGHAKRVMTGCWSFLRQFMYTKFIIVVDDDVNVRDWKEVIWAVTTRMDPVRDTVLVENTPIDYLDFASPVSGLGGKMGLDATSKWPGETDREWGRVIKKDPAVTVKIDGIWGKLGLLEHHHHHH,not soluble
11,MGSDKIHHHHHHMRLVLEEPFKRLWNGRDPFEAVEALQGKVYRELEGRRTLRTEVDGRGYFVKIHRGIGWGEIAKNLLTAKLPVLGARQEWQAIRRLHEAGVATMTAVAYGERGSDPARQHSFIVTEELAPTVDLEVFSQDWRERPPPPRLKRALVEAVARMVGDMHRAGVNHRDCYICHFLLHTDKPVSADDFRLSVIDLHRAQTRDATPKRWRNKDLAALYFSALDIGLTRRDKLRFLRTYFRRPLREILRDEAGLLAWMERKAEKLYERKQRYGDLL,not soluble
12,TKTEALTAEEAAKQYTNSLVEKALKAEKVYATYTQEQVDKIVAAMALAGSEASLQLAKEAHDETGRGVVEDKDTKNHFATEYVYERIKNEKTVGIIGEDKVAGSIEIAAPLGVLAGIVPTTNPTSTTMFKILVALKTRNAIVFAFHPAAQKCSAHAAQILYDAAVKAGAPENIVQWIETPSIANTGALISNKGIASILATGGPGMVNAALKSGNPSMGVGAGNGAVYVDATANLERAVEDLLLSKRFDNGMICATE,not soluble
13,MAGPSLVEVAAAVLIRPDDSFLLACRPDGKPYAGYWEFPGGKIETGESPLQALARELDEELGITVRQATPWLTRTFSYPHATVRLRFYRVTDWHGELTPRERQQFAWQTAENITVSPLLPANTPILRSLALPSIYAVTRTVETDIEASLLSIGQTLGNGVKLLQIRQKAMSHDQLEHFSRTALQLARSYQATVLINENIPLAQTLQADGVHLTAAQLRSLHSRPAVNWCGASCHNEQELQRAERLGVDFVTLSPVQPTLSHPGAAALGWKEFAALIRDYPLPVYALGGLLPADLETAREYGAHGIAMMRSILEHHHHHH,not soluble
14,QKGRVETRRVVHIMDFQRGKNLRYQLLQLVEPFGVISNHLILNKINEAFIEMATTEDAQAAVDYYTTTPALVFGKPVRVHLSQKYKRIK,soluble
15,MGILDKVKNLLSQNADKVETVINKAGEFVDEQTQGNYSDAIHKLHDAASNVVGMSDQQS,soluble
16,MISQVRIMDVIKPLGSFIQQDGMPVFGHLSAIPRSLDLESFQYLNEMDNPVSKWRKHFDYKQFQFVSLVTPDYVVGIAIADIRYLASGFCYLFDIKRNALTEQQWLKPCQLGYQTQPSSWLSKAHLANNTIQFSIEEGQWHVQFVTPSVNANITLHPQPQSLPLMLSTPTGYSGWTYTQKHNAMTVTGNLFILGEEQDLSQVAAGYDFSAGYMRRETSWRWASINHKDGDKSLGLNLAAGVNETGFCENVLWVDGERHLLNPVQFQFSRQNPRTDWRITSEDGCVDLVFEPINQRSEKKNFWFLKSNFRQYIGHFSGFVVDGNGSKHELDGVVGLTEDHYAKW,not soluble
17,MGSDKIHHHHHHLAKNNPISIPVSELRLGLTVKLPLSWTEHPFLINRIELKEQAQIEMIRGLKVQHVLVLAGAELLDEDVPKEEVPIEDDGFDEDMPERDVKREARVAIRKSQKRFLDCVNDSRSLVGKLGSDPEGAYRLSATLVEQMLEHLFEQEAAYLALVSAGEQGASVTQHGISVAVLSLMIAKSMDMPKKDMRDIALGALLHDIGKLRVPDNIRRKRGPLTTQEINFMNQHPNYGHEMLSRSGLFPEEVLHIIRHHHEFIDGTGFPGGLNGKKIPRTTQIVTLANDFEDQMTSHSIASPQVALGYLFKHRVGKHDEALIATLVKVLRHLSARYSGASHRRFFGKGDDDHPGSQAASGVGLQRRRRRPRPQNLDE,not soluble
18,MGSDKIHHHHHHMLTTGTTRITGDRKLNDLIGHLIDPQLVEVEAAPQIKAMATSRLNFKMQKQTQTNWCWAAVSASVGNFYRTGSWTQCGVASASLDRNCCNQPGPCNIYGYLDSALRITRSYNGMNRGSLQMSAIRNQIKKGRPIGLRCAWYGGGAHFLVIYGTDGDYLLIADSIYGYSTRALNSFPRLYKSGGNWTDTYFTVKK,not soluble
19,MGSKRVCPDANNSVKSKKAKTLDFLAHPRRKIAIQFFYLGWEHDGLVQQPHTQNTVENHIMQALIKTHLIEDWTKCDFSRCGRTDKGVSAFKQTAAMVVRSLCPGDSGVFWSDSTQEHQKVDYKASGEELPYVKMLNGVLPKTIRVFAWAPVAQTFNARFDCNRRTYKYSFAKADLNLEKMRQGAELLVGEHDFSNFCQIDMNEKRLLQSYVRKVYEVKVEQVSTHPENDMYSMVELTVSGSGFLWHMIRYIVTILQEIGRENEQPSLISQLLDLKKYPSRPQYTLASDTPLCLFDCGYKSEDVEWKVHDYTLKSTVTGLQKTWATYQARSRMMENMLGELTGMAEFSSGDANKGLHEFVQDRPIPSNYIRFENRKMCESLESKKEKMAEKKKNGEESSDKL,not soluble
20,MTIKTPTVKVPGLGTDPLEQRIKEKEKKWKYKIAVLSGKGGVGKSTVAVNLTAALAKMGYFVGILDADIHGPNVAKMLGVDKEEVYAEKFDDGHFEMIPPTTDFMGQVTPIKVMSMGMMVPEDQPVIWRGPLVTKAIKQLLGDVKWGSLDFMIIDFPPGTGDEILTVVQSIKLDAAIIVTTPQEVALLDTGKAVNMMKKMEVPYVAVVENMSYLICPHCGNKIDIFGEGGGEKLAQKEGVDFLGKIPIDLKAREASDLGIPIVLYEDTPAAKAFMELAEKLVNKLKEIKGDGGKELEHHHHHH,soluble
21,SEISRQEFQRRRQALVEQMQPGSAALIFAAPEVTRSADSEYPYRQNSDFWYFTGFNEPEAVLVLIKSDDTHNHSVLFNRVRDLTAEIWFGRRLGQDAAPEKLGVDRALAFSEINQQLYQLLNGLDVVYHAQGEYAYADVIVNSALEKLRKGSRQNLTAPATMIDWRPVVHEMRLFKSPEEIAVLRRAGEITAMAHTRAMEKCRPGMFEYHLEGEIHHEFNRHGARYPSYNTIVGSGENGCILHYTENECEMRDGDLVLIDAGCEYKGYAGDITRTFPVNGKFTQAQREIYDIVLESLETSLRLYRPGTSILEVTGEVVRIMVSGLVKLGILKGDVDELIAQNAHRPFFMAGLSHWLGLDVHDVGVYGQDRSRILEPGMVLTVEPGLYIAPDAEVPEQYRGIGIRIEDDIVITETGNENLTASVVKKPEEIEALMVAARKQ,soluble
